PMC9680610

Columns and labels:
Experiment in all cases: mass photometry
[1] = target: SARS-CoV-2 spike, Omicron (B.1.1.529 strain), 2P stabilised (SARS-CoV-2 (Omicron B.1.1.529 strain)) (UniProt P0DTC2)
[2] = target: SARS-CoV-2 spike, Omicron (B.1.1.529 strain), HexaPro stabilised (SARS-CoV-2 (Omicron B.1.1.529 strain)) (UniProt P0DTC2)
[3] = target: SARS-CoV-2 spike, wild-type (Wuhan-hu-1 strain), 2P stabilised (K986P, V987P), soluble recombinant (SARS-CoV-2 (Wuhan-hu-1 strain)) (UniProt P0DTC2)
[4] = target: SARS-CoV-2 spike, wild-type (Wuhan-hu-1 strain), HexaPro stabilised (K986P, V987P, F817P, A892P, A89 (SARS-CoV-2 (Wuhan-hu-1 strain)) (UniProt P0DTC2))

**Q.** How did the stoichiometry N [1] turn out when “angiotensin-converting enzyme-2 (ACE2) without the neck domain (from UniProt Q9BYF1 18-740) (receptor)” was run?
**A.** < 3

**Q.** What about the stoichiometry N [2] of the same substance?
**A.** < 3

**Q.** With “angiotensin-converting enzyme-2 (ACE2) with the neck domain (from UniProt Q9BYF1 18-740) (receptor)” as the substance, how does the percent of spike with one ACE2 bound [3] read?
**A.** 42%

**Q.** What about the percent of spike with two ACE2 bound [3] of the same substance?
**A.** 8%

**Q.** What about the stoichiometry N [3] of the same substance?
**A.** < 3

**Q.** What about the stoichiometry N [1] of the same substance?
**A.** < 3

**Q.** What about the stoichiometry N [2] of the same substance?
**A.** < 3

**Q.** What about the percent of spike with two ACE2 bound [4] of the same substance?
**A.** 7%

**Q.** What about the stoichiometry N [4] of the same substance?
**A.** < 3

**Q.** Which percent of spike counts that are trimer [4] does the source give for “SARS-CoV-2 spike, wild-type (Wuhan-hu-1 strain), HexaPro stabilised (K986P, V987P, F817P, A892P, A89 (from UniProt P0DTC2 14-1208) (natural protein)” here?
**A.** 90%
